This is an account of results in patent US20100167314A1.

In the experiment the target is human pNBC1 (pancreas-type Na/HCO3 cotransporter 1) (human), Q9Y6R1. The experiment can be described thus: cell-based or functional assay.
human pNBC1 (pancreas-type Na/HCO3 cotransporter 1) (human), Q9Y6R1, sequence (Q9Y6R1 whole entry): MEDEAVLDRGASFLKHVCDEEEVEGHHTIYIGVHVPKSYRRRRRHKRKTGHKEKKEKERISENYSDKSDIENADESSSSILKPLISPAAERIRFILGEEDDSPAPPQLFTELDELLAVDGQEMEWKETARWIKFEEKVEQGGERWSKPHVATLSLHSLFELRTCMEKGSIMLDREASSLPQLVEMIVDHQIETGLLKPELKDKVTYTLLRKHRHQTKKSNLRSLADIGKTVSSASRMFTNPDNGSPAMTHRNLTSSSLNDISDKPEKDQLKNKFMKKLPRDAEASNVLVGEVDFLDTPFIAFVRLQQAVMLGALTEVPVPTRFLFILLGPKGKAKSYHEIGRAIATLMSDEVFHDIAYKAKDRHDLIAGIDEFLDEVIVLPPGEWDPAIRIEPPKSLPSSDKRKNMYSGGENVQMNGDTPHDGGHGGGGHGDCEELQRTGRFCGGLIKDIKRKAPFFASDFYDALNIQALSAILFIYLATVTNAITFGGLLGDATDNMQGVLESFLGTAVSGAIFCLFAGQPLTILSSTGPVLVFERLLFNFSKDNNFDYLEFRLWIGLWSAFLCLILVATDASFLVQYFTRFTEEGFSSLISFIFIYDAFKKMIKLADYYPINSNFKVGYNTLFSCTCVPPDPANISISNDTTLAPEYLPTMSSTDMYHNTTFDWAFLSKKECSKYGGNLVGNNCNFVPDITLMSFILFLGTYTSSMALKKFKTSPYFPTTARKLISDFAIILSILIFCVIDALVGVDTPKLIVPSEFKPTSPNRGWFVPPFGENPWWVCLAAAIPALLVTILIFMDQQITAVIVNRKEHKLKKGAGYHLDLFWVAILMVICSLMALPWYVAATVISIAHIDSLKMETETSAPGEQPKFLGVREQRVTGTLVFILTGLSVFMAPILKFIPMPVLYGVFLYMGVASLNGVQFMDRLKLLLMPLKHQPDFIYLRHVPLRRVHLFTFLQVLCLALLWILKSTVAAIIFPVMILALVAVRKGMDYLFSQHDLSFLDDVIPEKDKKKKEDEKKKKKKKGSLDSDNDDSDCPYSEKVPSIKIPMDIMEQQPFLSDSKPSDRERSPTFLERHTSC

B1: mouse IRBIT (IP3 receptor-binding protein; IP3R-binding protein released with inositol 1,4,5-trisphosphate), Q80SW1 1-530 (protein)
chain: MSMPDAMPLPGVGEELKQAKEIEDAEKYSFMATVTKAPKKQIQFADDMQEFTKFPTKTGRRSLSRSISQSSTDSYSSAASYTDSSDDEVSPREKQQTNSKGSSNFCVKNIKQAEFGRREIEIAEQDMSALISLRKRAQGEKPLAGAKIVGCTHITAQTAVLIETLCALGAQCRWSACNIYSTQNEVAAALAEAGVAVFAWKGESEDDFWWCIDRCVNMDGWQANMILDDGGDLTHWVYKKYPNVFKKIRGIVEESVTGVHRLYQLSKAGKLCVPAMNVNDSVTKQKFDNLYCCRESILDGLKRTTDVMFGGKQVVVCGYGEVGKGCCAALKALGAIVYITEIDPICALQACMDGFRVVKLNEVIRQVDVVITCTGNKNVVTREHLDRMKNSCIVCNMGHSNTEIDVTSLRTPELTWERVRSQVDHVIWPDGKRVVLLAEGRLLNLSCSTVPTFVLSITATTQALALIELYNAPEGRYKQDVYLLPKKMDEYVASLHLPSFDAHLTELTDDQAKYLGLNKNGPFKPNYYRY
With B1, the current change at a membrane potential of -25 mV when ND96 solution was replaced by ND96+HCO3- solution (voltage clamp, Xenopus oocytes) fell in the range of 6 to 7 times.
